How the values were obtained:
Assay in all cases: purified protein
Conditions in all cases: NADPH 0.1 mM, pH 7.4, 25 °C, 10 mM beta-mercaptoethanol
purified protein [1] = substrate: O=Cc1ccccc1; format: biochemical, Zea mays
purified protein [2] = substrate: O=Cc1ccccc1; format: biochemical, Oryza sativa
purified protein [3] = substrate: O=Cc1ccccc1; format: biochemical, Echinochloa colona

B1: ZmAKR4 (Zea mays) (protein)
chain: MARHFVLNTGAKIPSVGLGTWQSDPGVVGNAVYAAVKAGYRHIDCARVYGNEKEIGLALKKLFEEGVVKREDLFITSKLWNDHHAPEDVPEALNDSLNDLQLEYLDLYLIHWPFRVKKGTNTSPENFVTPDFPATWGAMEKLYDAGKARAIGVSNFSSKKLGDLLAVARVPPAVDQVECHPGWQQTKLHSFCQSTGVHLTAYSPLGSPGTTWMNGNVLKEPIIISIAEKLGKTSAQVALRWNIQMGHSVLPKSTNEERIKQNLDVYDWSIPDDLLAKFSEIKQARLLRGNFIVNPESVYKTHEELWDGEL
notes: full CDS from leaf cDNA in pET32a (vector tag, about 50 kD), E. coli BL21, Ni-NTA
With B1 the Km (purified protein [1]) was 1060 ± 290 µM and the kcat (purified protein [1]) was 0.7522 ± 0.0293 s⁻¹.

B2: OsAKR4-1 (Oryza sativa Japonica Group) (protein)
chain: MAKHFVLNTGAKIPSVGLGTWQSDPGVVGDAVYAAVKAGYRHIDCARMYKNENEVGIALKKLFEEGVVKREDLFITSKLWCDCHAPEDVPESLDKTLSDLQLEYLDLYLIHWPFRVKKGSGISNTEDYIPPDIPSTWGAMEKLYDSGKSRAIGVSNFSSKKLGDLLAVACVPPAVDQVECHPGWQQTKLHNFCQSTGVHLSAYSPLGSPGSTWMNSNVLKESVIISIAEKLGKTPAQVALHWNIQMGHSVLPKSVTEERIKQNIDVYDWSIPEDLLVKFSEIKQVRLLRGDVIVNPHSVYKTHEELWDGEI
notes: as for B1
For B2, the Km (purified protein [2]) was 2476 ± 540 µM and the kcat (purified protein [2]) was 0.676 ± 0.0363 s⁻¹.

B3: EcAKR4 (Echinochloa colona) (protein)
chain: MARHFVLNTGAKIPSVGLGTWQSDPGVVGDAVYAAVKAGYRHIDCARVYGNEKEIGLALKKLFEEGVVKREDLFITSKLWNDHHAPEDVPEALNESLKDLQLDYLDLYLIHWPFRVKKGTNTSPENFITPDIPATWGAMEKLYDAGKARAIGVSNFSSKKLGDLLAVARVPPAVDQVECHPGWQQTKLHNFCQSTGVHLSAYSPLGSPGTTWMNGNVLKEPVIISIAEKLGKTPAQVALRWNIQMGHSVLPKSTNEERIKQNLDVYDWSIPDDLLAKFSEIKQARLLRGNFIVNPQSVYKTHEELWDGEL
notes: full CDS from leaf cDNA in pET32a as printed (about 40 kD on gel), E. coli BL21, Ni-NTA
Work on B3 yielded a Km (purified protein [3]) of 870 ± 250 µM and a kcat (purified protein [3]) of 0.7052 ± 0.0253 s⁻¹.
